Source: patent US20150307625A1 (Bayer, published 2015)

Tests used:
[1] = target: T1, human activated Protein C (human, UniProt P04070 43-461); test: direct ELISA, hAPC coated at 1 ug/ml, positive control antibody specific for the antigen, concentration not given
dog Protein C (zymogen) [2] = target: T2, dog Protein C (zymogen) (dog, UniProt Q28278 43-456); test: direct ELISA, dPC coated at 10 ug/ml, positive control antibody specific for the antigen, concentration not given
T2 construct: mature; also called dog PC
T2 sequence (looked up): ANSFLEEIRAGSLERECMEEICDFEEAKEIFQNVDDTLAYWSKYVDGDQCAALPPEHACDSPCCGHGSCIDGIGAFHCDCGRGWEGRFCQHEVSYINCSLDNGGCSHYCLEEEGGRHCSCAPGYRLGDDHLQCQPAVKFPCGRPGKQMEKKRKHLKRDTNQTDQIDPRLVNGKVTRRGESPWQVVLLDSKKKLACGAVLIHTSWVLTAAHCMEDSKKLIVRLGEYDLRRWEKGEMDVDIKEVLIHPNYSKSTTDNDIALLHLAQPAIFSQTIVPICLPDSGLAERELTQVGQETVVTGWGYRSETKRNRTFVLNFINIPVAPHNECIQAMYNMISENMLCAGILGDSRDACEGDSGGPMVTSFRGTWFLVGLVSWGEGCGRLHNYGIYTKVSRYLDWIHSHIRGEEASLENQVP

[3] = target: T3, mouse Protein C (zymogen) (mouse, UniProt P33587 42-460); test: direct ELISA, mPC coated at 10 ug/ml, positive control antibody specific for the antigen, concentration not given
T3 construct: mature; also called mouse PC
T3 sequence (looked up): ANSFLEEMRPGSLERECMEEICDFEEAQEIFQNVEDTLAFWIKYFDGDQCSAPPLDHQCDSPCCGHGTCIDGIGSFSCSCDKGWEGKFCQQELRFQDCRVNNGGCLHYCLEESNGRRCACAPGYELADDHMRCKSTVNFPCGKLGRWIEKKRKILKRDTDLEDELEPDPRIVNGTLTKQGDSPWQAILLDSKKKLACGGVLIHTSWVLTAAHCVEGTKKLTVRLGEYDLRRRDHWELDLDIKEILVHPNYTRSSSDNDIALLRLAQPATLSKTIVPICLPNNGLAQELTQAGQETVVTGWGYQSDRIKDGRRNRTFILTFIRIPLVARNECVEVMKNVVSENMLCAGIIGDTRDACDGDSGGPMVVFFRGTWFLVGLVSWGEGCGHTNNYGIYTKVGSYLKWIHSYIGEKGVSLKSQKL

activated Factor X = test: direct ELISA, FXa coated at 10 ug/ml, positive control antibody specific for the antigen, concentration not given
activated Factor VII = test: direct ELISA, FVIIa coated at 10 ug/ml, positive control antibody specific for the antigen, concentration not given
activated Factor IX = test: direct ELISA, FIXa coated at 5 ug/ml, positive control antibody specific for the antigen, concentration not given
[4] = target: activated Factor II (thrombin) (Homo sapiens (Human)) (UniProt P00734); test: direct ELISA, FIIa coated at 10 ug/ml, positive control antibody specific for the antigen, concentration not given
[5] = target: rabbit activated Protein C (rabbit) (UniProt Q28661); test: direct ELISA, aPC coated, hIgG1
[6] = target: mouse activated Protein C (mouse) (UniProt P33587); test: direct ELISA, aPC coated, hIgG1
[7] = target: T1, human activated Protein C; test: cell-based or functional assay
[8] = target: mouse activated Protein C (mouse) (UniProt P33587); test: direct ELISA, hIgG1
[9] = target: T1, human activated Protein C; test: direct ELISA, aPC coated, hIgG1
dog activated Protein C [10] = target: T4, dog activated Protein C (dog, UniProt Q28278 43-456); test: direct ELISA, aPC coated, hIgG1
T4 construct: mature; also called dog aPC; dAPC
T4 sequence (looked up): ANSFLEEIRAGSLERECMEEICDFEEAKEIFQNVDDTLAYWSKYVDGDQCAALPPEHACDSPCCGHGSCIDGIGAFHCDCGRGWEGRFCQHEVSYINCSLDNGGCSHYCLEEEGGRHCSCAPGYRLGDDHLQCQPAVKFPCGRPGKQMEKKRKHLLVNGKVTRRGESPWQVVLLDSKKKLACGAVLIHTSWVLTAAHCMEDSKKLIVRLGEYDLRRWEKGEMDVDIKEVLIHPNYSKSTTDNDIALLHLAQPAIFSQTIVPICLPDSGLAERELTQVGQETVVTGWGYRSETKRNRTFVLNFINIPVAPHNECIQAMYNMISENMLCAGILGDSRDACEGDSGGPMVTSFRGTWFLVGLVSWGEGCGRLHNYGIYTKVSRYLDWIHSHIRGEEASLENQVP

[11] = target: rabbit activated Protein C (rabbit) (UniProt Q28661); test: cell-based or functional assay
[12] = target: T1, human activated Protein C; test: cell-based or functional assay; remark: listed apart in the source
dog Protein C (zymogen) [13] = target: T2, dog Protein C (zymogen); test: direct ELISA, antigen coated
[14] = target: T1, human activated Protein C; test: cell-based or functional assay; remark: listed apart in the source
dog activated Protein C [15] = target: T4, dog activated Protein C; test: cell-based or functional assay
[16] = target: rabbit activated Protein C (rabbit) (UniProt Q28661); test: ELISA, hIgG1
[17] = target: T1, human activated Protein C; test: ELISA, hIgG1
dog activated Protein C [18] = target: T4, dog activated Protein C; test: ELISA, hIgG1
dog Protein C (zymogen) [19] = target: T2, dog Protein C (zymogen); test: direct ELISA, dPC coated at 10 ug/ml, Fab at 20 nM, anti-human Fab-HRP, AmplexRed (RFU)
Protocol: (§1) To determine the binding selectivity of these fabs, their binding activities to the proenzyme human PC, to thrombin (FIIa), and to the activated Factor II (FIIa, thrombin), Factor VII (FVIIa), Factor IX (FIXa), and Factor X (FXa) were also assessed by ELISA. Briefly, an ELISA plate was coated with human aPC at 1 ug/ml, mouse PC at 10 ug/ml, dog PC at 10 ug/ml, other coagulation factors (FIIa, FVIIa, FIXa, FXa) at 5-10 ug/ml. Anti-aPC Fabs were added to the wells at 20 nM (1 ug/ml). Bound Fabs were detected by the secondary antibody (anti-human Fab-HRP) followed by HRP substrate AmplexRed.

dog activated Protein C [20] = target: T4, dog activated Protein C; test: ELISA and Biacore, as the sentence says
[21] = target: T1, human activated Protein C; test: direct ELISA, antigen coated, Fab
dog activated Protein C [22] = target: T4, dog activated Protein C; test: direct ELISA, antigen coated, Fab
[23] = target: T1, human activated Protein C; test: Biacore, Fab
dog activated Protein C [24] = target: T4, dog activated Protein C; test: Biacore, Fab
dog activated Protein C [25] = target: T4, dog activated Protein C; test: direct ELISA, antigen coated at 1 ug/ml, IgG at 20 nM, anti-human IgG-HRP, AmplexRed (RFU)
[26] = target: T1, human activated Protein C; test: ELISA titration, IgG against Fab
[27] = target: T1, human activated Protein C; test: ELISA titration
[28] = target: T3, mouse Protein C (zymogen); test: direct ELISA, mPC coated at 10 ug/ml, Fab at 20 nM, anti-human Fab-HRP, AmplexRed (RFU)
Protocol: as §1

dog activated Protein C [29] = target: T4, dog activated Protein C; test: direct ELISA, antigen coated at 100 ng/well, Fab at 20 nM (1 ug/ml), anti-human Fab-HRP, AmplexRed (RFU)
Protocol: (§2) FIG. 3 depicts a graph characterizing anti-APC Fabs by direct ELISA. An ELISA plate was coated with human PC (hPC), human aPC (hAPC), dog aPC (dAPC), mouse aPC (mAPC) at 100 ng per well. Purified Fabs designate on the X-axis were added to the plate at 20 nM (1 ug/ml). Bound Fab was detected by the secondary antibody (anti-human Fab-HRP) followed by HRP substrate AmplexRed. The purified Fabs preferentially bind to human aPC and, with the exception of Fab R41C17, show little to no binding to human PC.
(§3) Antigens were coated directly on ELISA plates. Coating antigens included human PC (plasma-derived), human aPC (recombinant), dog aPC (plasma-derived), and mouse aPC (recombinant) at 100 ng/well in PBS/Ca buffer. After blocking the plate with 5% milk/PBS and washing the plate with PBS-Tween20, soluble Fabs (1 ug/ml, 20 nM) were added to the plate and incubated for 1 h at RT with shaking. Fab binding was detected with anti-human Fab (lambda) antibody-HRP and Amplex red as substrate. […] In contrast, R41C17 binds to both human APC and human PC. Also shown in FIG. 3 is cross-species reactivity of Fabs by ELISA.

[30] = target: T5, human Protein C (zymogen) (human, UniProt P04070 43-461); test: as above
T5 construct: also called human PC; hPC
Protocol: as §2, §3

Sequence of activated Factor X (P00742 41-179, chain 1 of 2): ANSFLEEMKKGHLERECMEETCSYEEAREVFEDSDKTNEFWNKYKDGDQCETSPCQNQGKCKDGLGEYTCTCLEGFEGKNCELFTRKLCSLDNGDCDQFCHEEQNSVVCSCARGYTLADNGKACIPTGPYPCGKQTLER
Sequence of activated Factor X (P00742 235-488, chain 2 of 2): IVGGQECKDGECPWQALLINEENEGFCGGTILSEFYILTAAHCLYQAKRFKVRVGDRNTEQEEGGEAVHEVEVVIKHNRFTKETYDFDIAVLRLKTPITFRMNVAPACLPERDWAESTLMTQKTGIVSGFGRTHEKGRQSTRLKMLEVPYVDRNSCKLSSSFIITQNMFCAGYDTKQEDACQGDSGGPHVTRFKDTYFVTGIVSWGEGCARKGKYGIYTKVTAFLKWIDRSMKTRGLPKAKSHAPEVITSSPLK
Sequence of activated Factor VII (P08709 61-212, chain 1 of 2): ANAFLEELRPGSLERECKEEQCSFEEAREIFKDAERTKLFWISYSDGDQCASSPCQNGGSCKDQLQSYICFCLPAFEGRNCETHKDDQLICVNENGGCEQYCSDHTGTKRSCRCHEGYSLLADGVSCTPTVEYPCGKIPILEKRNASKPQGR
Sequence of activated Factor VII (P08709 213-466, chain 2 of 2): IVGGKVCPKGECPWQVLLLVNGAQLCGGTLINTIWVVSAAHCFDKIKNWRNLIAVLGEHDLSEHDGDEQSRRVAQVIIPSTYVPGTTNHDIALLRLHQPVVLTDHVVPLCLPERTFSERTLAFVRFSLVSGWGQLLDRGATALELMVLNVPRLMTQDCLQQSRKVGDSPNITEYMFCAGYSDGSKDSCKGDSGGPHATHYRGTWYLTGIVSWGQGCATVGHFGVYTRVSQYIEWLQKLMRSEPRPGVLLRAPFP

**Q.** How did the RFU [1] turn out when “control Ab (specific for each antigen) (antibody)” was run?
**A.** 11700 RFU

**Q.** And the RFU (dog Protein C (zymogen) [2])?
**A.** 476 RFU

**Q.** And the RFU [3]?
**A.** 331 RFU

**Q.** And the RFU (activated Factor X)?
**A.** 6460 RFU

**Q.** What about the RFU (activated Factor VII) of the same molecule?
**A.** 10300 RFU

**Q.** And the RFU (activated Factor IX)?
**A.** 7370 RFU

**Q.** What about the RFU [4] of the same molecule?
**A.** 6050 RFU

B1: T46J23-hIgG1 (antibody, V domains shown)
VH: EVQLLESGGGLVQPGGSLRLSCAASGFTFGNHWMTWVRQAPGKGLEWVSGVSWNGSRTHYADSVKGRFTISRDNSKNTLYLQMNSLRAEDTAVYYCALTGRSGWMRFPNWFDPWGQGTLVTVTS
VL: LTQPPSASGTPGQRVTISCTGTSSNIGAGYDVHWYQQLPGTAPKLLIYDNNNRPSGVPDRFSGSKSGTSASLAISGLRSEDEADYYCAAWDDSLNGVVFGGGTKLTVLG
notes: also called T46J23-IgG
**Q.** For B1, which EC50 [5] is on record?
**A.** 7 nM

**Q.** And the EC50 [6]?
**A.** 4.6 nM

**Q.** And the “IC50 (read off the curve), amidolytic activity of human aPC [b]” value [7]?
**A.** ~8 nM

**Q.** And the EC50 [8]?
**A.** 6 nM

**Q.** What about the EC50 [9] of the same molecule?
**A.** 2.18 nM

**Q.** What about the EC50 (dog activated Protein C [10]) of the same molecule?
**A.** 1.68 nM

**Q.** And the Anti-aPC IC50 (nM), Amidolytic activity [11]?
**A.** 17 nM

**Q.** What about the “aPTT, inhibition of aPC activity at 1 ug/ml IgG (1:1 molar ratio)” value [12] of the same molecule?
**A.** ~50%

**Q.** Does B1 bind (dog Protein C (zymogen) [13])?
**A.** no binding

**Q.** What about the “Anti-aPC IC50 (nM), Amidolytic activity” value [14] of the same molecule?
**A.** 18 nM

**Q.** And the “Anti-aPC IC50 (nM), Amidolytic activity” value (dog activated Protein C [15])?
**A.** 625 nM

**Q.** And the EC50 [16]?
**A.** 1.7 nM

**Q.** And the EC50 [17]?
**A.** 2.2 nM

**Q.** What about the EC50 (dog activated Protein C [18]) of the same molecule?
**A.** 1.7 nM

B2: T46J23 Fab (Fab, V domains shown)
VH: EVQLLESGGGLVQPGGSLRLSCAASGFTFGNHWMTWVRQAPGKGLEWVSGVSWNGSRTHYADSVKGRFTISRDNSKNTLYLQMNSLRAEDTAVYYCALTGRSGWMRFPNWFDPWGQGTLVTVTS
VL: LTQPPSASGTPGQRVTISCTGTSSNIGAGYDVHWYQQLPGTAPKLLIYDNNNRPSGVPDRFSGSKSGTSASLAISGLRSEDEADYYCAAWDDSLNGVVFGGGTKLTVLG
notes: Human Fab (lambda), expressed in E. coli
**Q.** What does the source list for B2?
**A.** binding result (dog Protein C (zymogen) [19]): no binding (tested: 20 nM); Kd (dog activated Protein C [20]): 22 nM; EC50 [21]: 6.7 nM; EC50 (dog activated Protein C [22]): 16.6 nM; Kd [23]: 4.1 nM; Kd (dog activated Protein C [24]): 21 nM

B3: R41E3 hIgG1 (antibody, V domains shown)
VH: EVQLLESGGGLVQPGGSLRLSCAASGFTFNNYAMTWVRQAPGKGLEWVSGVSWNGSRTHYADSVKGRFTISRDNSKNTLYLQMNSLRAEDTAVYYCARADSSSAGRWAGSLDYWGQGTLVTVTS
VL: LTQPPSASGTPGQRVTISCSGSSSNIGNNAVNWYQQLPGTAPKLLIYSNNQRPSGVPDRFSGSKSGTSASLAISGLRSEDEADYYCSSYTSSSTHVVFGGGTKLTVLG
notes: also called R41E3-IgG
**Q.** Does B3 bind (dog activated Protein C [25])?
**A.** no binding (tested: 20 nM)

**Q.** And the EC50 [9]?
**A.** 1.76 nM

**Q.** And the “aPTT, inhibition of aPC activity at 163-fold molar excess” value [12]?
**A.** ~80%

**Q.** What about the “fold increase of binding affinity against the corresponding Fab” value [26] of the same molecule?
**A.** ~50 fold

B4: R41E3 Fab (Fab, V domains shown)
VH: EVQLLESGGGLVQPGGSLRLSCAASGFTFNNYAMTWVRQAPGKGLEWVSGVSWNGSRTHYADSVKGRFTISRDNSKNTLYLQMNSLRAEDTAVYYCARADSSSAGRWAGSLDYWGQGTLVTVTS
VL: LTQPPSASGTPGQRVTISCSGSSSNIGNNAVNWYQQLPGTAPKLLIYSNNQRPSGVPDRFSGSKSGTSASLAISGLRSEDEADYYCSSYTSSSTHVVFGGGTKLTVLG
notes: as for B2
**Q.** Which results are given for B4?
**A.** binding result (dog Protein C (zymogen) [19]): no binding (tested: 20 nM); EC50 [27]: 104 nM; EC50 [21]: 10.4 nM; binding result [28]: no binding (tested: 20 nM); Kd [23]: 11 nM; binding result (dog activated Protein C [29]): no binding (tested: 20 nM); binding result [30]: no binding (tested: 20 nM)
